# Results: patent publication US20250320281A1
# Key:
# Test in all cases: cell-based or functional assay
# [1] = molecular target: HIV-1 Env of pseudovirus MGRM-Chronic-B-010 (HIV-1)
# [2] = molecular target: HIV-1 Env of pseudovirus MGRM-G-006 (clade G) (HIV-1)
# [3] = molecular target: HIV-1 Env of pseudovirus MGRM-AG-012 (clade CRF_AG) (HIV-1)
# [4] = molecular target: HIV-1 envelope glycoprotein (Env) of isolate 92UG037, clade A (HIV-1)
# [5] = molecular target: HIV-1 Env of pseudovirus MGRM-AG-002 (clade CRF_AG) (HIV-1)
# [6] = molecular target: HIV-1 Env of isolate 6535.3 (Acute), clade B, on pseudovirus (HIV-1)
# [7] = molecular target: HIV-1 Env of isolate PVO.4 (Acute), clade B, on pseudovirus (HIV-1)
# [8] = molecular target: HIV-1 Env of isolate 92UG046 (clade D pseudovirus) (HIV-1)
# [9] = molecular target: HIV-1 Env of isolate MGRM-D-022 (clade D pseudovirus) (HIV-1)
# [10] = molecular target: HIV-1 Env of isolate MGRM-D-011 (clade D pseudovirus) (HIV-1)
# [11] = molecular target: HIV-1 Env of isolate VLGCB3, clade B, on pseudovirus (HIV-1)
# [12] = molecular target: HIV-1 Env of isolate 93IN905 (HIV-1)
# [13] = molecular target: HIV-1 Env of isolate MGRM-Chronic-B-002, clade B, on pseudovirus (HIV-1)
# [14] = molecular target: HIV-1 Env of pseudovirus MGRM-G-001 (clade G) (HIV-1)
Substance,"IC50 (µg/ml), pseudovirus neutralization [1] [µg/mL]",IC50 [2] [µg/mL],IC50 [3] [µg/mL],"IC50 (µg/ml), pseudovirus neutralization [4] [µg/mL]",IC50 [5] [µg/mL],"IC50 (µg/ml), pseudovirus neutralization [6] [µg/mL]","IC50 (µg/ml), pseudovirus neutralization [7] [µg/mL]","IC50 (µg/ml), pseudovirus neutralization [8] [µg/mL]","IC50 (µg/ml), pseudovirus neutralization [9] [µg/mL]","IC50 (µg/ml), pseudovirus neutralization [10] [µg/mL]","IC50 (µg/ml), pseudovirus neutralization [11] [µg/mL]",IC50 [12] [µg/mL],"IC50 (µg/ml), pseudovirus neutralization [13] [µg/mL]",IC50 [14] [µg/mL]
b12 (antibody),> 50,> 50,10.4,> 50,0.89,1.93,> 50,0.07,17.6,7.75,0.15,21.4,0.86,> 50
1495_C14 (PGC14) (antibody),27,> 50,> 50,> 50,> 50,35,> 50,> 50,> 50,> 50,21,19,> 50,> 50
